In the experiment the target is KRas WT G domain (UniProt P01116-1 1-166). Kind of experiment: pull-down.

B1: GST-RBD (domain or fragment)
chain: GLTSKESLFVRINAAHGFSLIQVDNTKVTMKEILLKAVKRRKGSQKVSGPQYRLEKQSEPNVAVDLDSTLESQSAWEFCLVRENSSRAD
Regarding B1, the binding result is reported as “binds”.

These data come from paper PMC9171633 (Proceedings of the National Academy of Sciences of the …, 2022).
